Data taken from patent US20250129166A1 (Five Prime, published 2025).

Biological target: T1, full length human PSGL-1 (SEQ ID NO: 3) expressed on heparan sulfate-mutant CHO cells (human, UniProt Q14242 42-412)
T1 construct: also called CHO-PSGL-1 cells
T1 sequence: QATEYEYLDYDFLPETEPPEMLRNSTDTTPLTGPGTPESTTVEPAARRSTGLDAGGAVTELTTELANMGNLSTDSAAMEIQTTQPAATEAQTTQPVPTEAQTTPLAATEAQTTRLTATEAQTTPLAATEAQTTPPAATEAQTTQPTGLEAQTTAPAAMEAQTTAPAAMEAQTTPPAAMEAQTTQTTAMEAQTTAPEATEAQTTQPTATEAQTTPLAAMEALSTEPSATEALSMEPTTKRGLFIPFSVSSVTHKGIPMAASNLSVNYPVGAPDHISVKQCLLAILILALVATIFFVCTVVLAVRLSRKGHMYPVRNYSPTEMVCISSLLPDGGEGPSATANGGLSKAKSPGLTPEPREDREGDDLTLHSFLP
Test: VISTA-Fc binding to CHO-PSGL-1 cells at pH 6.0

B1: H2R mutant (Fc fusion)
chain: FKVATPYSLYVCPEGQNVTLTCRLLGPVDKGHDVTFYKTWYRSSRGEVQTCSERRPIRNLTFQDLHLHHGGHQAANTSHDLAQRHGLESASDHHGNFSITMRNLTLLDSGLYCCLVVEIRRRRSEHRVHGAMELQVQTGKDAPSNCVVYPSSSQDSENITAA
notes: Produced by transient transfection of Expi293 cells; not shown: human IgG1 Fc part and any linker or tag of the VISTA-Fc construct
B1: binds.
